Data taken from publication doi:10.1101/2020.07.24.220665 (bioRxiv, 2020).
Values joined by “and” are separate entries in the source; they are usually repeats but may differ in a detail not shown here. Identical values can stand only once.

Biological target: the molecule itself
Test: non-reducing PAGE

Protein	stoichiometry N	binding result
granulin-3 (GRN-3) (natural protein, UniProt P28799 206-261, looked up) VMCPDARSRCPDGSTCCELPSGKWGCCPMPNATCCSDHLHCCPQDTVCDLIQSKCL	2 and 3	
granulin-5 (GRN-5) (natural protein, UniProt P28799 364-417, looked up) VPCDNVSSCPSSDTCCQLTSGEWGCCPIPEAVCCSDHQHCCPQGYTCVAEGQCQ		binds
